Assay results reported in patent US10617759B2, “Light-stimulated release of cargo from oligonucleotides” (Trustees of Boston University, priority 2016, dated 2020).

Experiment: Protein caging and uncaging, particle counting of TEM images
Assay type: physicochemical
Details: low power light irradiation for 60 seconds (302 nm)
Procedure: BSA was directly caged through the reaction of our crosslinker with the surface amino groups on the protein. Streptavidin was indirectly caged by attaching biotin-amine to the nanocage cavity and then subsequently mixing with the protein. […] None were seen tethered to the cage exterior.
TEM samples were prepared by placing 3 μL of sample solution onto a carbon coated grid (FCF400-Cu, Electron Microscopy Sciences) which was previously charged using a plasma etcher (30 seconds of irradiation). After 2 minutes, the solution was wicked away from the grid with filter paper (Whatman 50 hardened). The grid was immediately treated with stain for 30 seconds and excess solution was wicked away. The remaining solution on the grid was evaporated at room temperate prior to imaging. TEM images were acquired with an FEI Tecnai Spirit Transmission Electron Microscope operated at 80 kV. Saturated uranyl formate (in ddH2O prepared freshly before usage) was used for protein caging experiments and 2% uranyl acetate (diluted with ddH2O from 4%, Electron Microscopy Sciences) was used for all other samples.
Protein containing nanocages were created following the general cavity functionalization protocol. 5 equivalents per oligo handle were used. […] The extent of uncaging was analyzed using particle counting of the TEM images. The entirety of each TEM image was analyzed to avoid bias.

streptavidin
nanocages containing protein after light irradiation: 9%
uncaging efficiency: 87%
